# According to the supplement of paper PMC10724198:
# ± gives the standard deviation of the averaged measurements.
# How the values were obtained:
# [1] = test system: Saccharomyces cerevisiae; test: protein stability index of tFT-peptide fusion (C-terminal peptide) (PSI (0-1 scale)); higher = more stable (slower turnover)
# Experimental: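 MPS profiling in S. cerevisiae of the tFT-X12 degron library: putative degron peptides plus stable controls, 12 aa, fused to the C-terminus of a sfGFP-mCherry timer. Cells are FACS-sorted into 8 mCherry/sfGFP bins and deep-sequenced. PSI runs from 0 (unstable) to 1 (stable). Backgrounds are wild type, das1Δ and doa10Δ at 30 °C, and wild type, das1Δ, cdc34-1 and cdc53-1 at 37 °C; 2-3 technical replicates each.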
# [2] = test system: Saccharomyces cerevisiae; test: as above; conditions: genetic background: wild type; temperature: 30 C
# [3] = genetic background: cdc34-1, temperature: 37 C
# [4] = genetic background: cdc53-1, temperature: 37 C
# [5] = genetic background: das1 deletion, temperature: 30 C
# [6] = genetic background: das1 deletion, temperature: 37 C
# [7] = genetic background: doa10 deletion, temperature: 30 C
# [8] = genetic background: wild type, temperature: 30 C
# [9] = genetic background: wild type, temperature: 37 C
# 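Further: PSI is a weighted mean of sequencing reads over stability bins, variants kept only with over 10 reads, mCherry proximal and sfGFP distal, peptide attached via GGGS linker.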
Sequence,"protein stability index [1, 3]","protein stability index [1, 4]","protein stability index [1, 5]","protein stability index [1, 6]","protein stability index [1, 7]","protein stability index [1, 8]","protein stability index [1, 9]",protein stability index [2]
FFFFSVHLSFLD,0.122 ± 0.0052,0.295 ± 0.018,0.178 ± 0.04,0.365 ± 0.029,0.179 ± 0.0073,0.176 ± 0.028,0.305 ± 0.024,0.31 ± 0.013
FFFLILFPLSYS,0.4518 ± 0.0042,0.526 ± 0.044,0.376 ± 0.028,0.5472 ± 0.0028,0.3517 ± 0.0033,0.372 ± 0.0098,0.513 ± 0.041,0.49 ± 0.072
FFFLVRLCRLCV,0.478 ± 0.043,0.558 ± 0.02,0.46 ± 0.019,0.575 ± 0.025,0.266 ± 0.0098,0.261 ± 0.011,0.353 ± 0.0078,0.292 ± 0.055
FFIMFFDFWGYF,0.378 ± 0.01,0.462 ± 0.021,0.335 ± 0.023,0.624 ± 0.075,0.319 ± 0.0034,0.373 ± 0.047,0.57 ± 0.028,0.447 ± 0.079
FFLRFGLFLFTL,0.491 ± 0.0061,0.5109 ± 0.004,0.429 ± 0.017,0.564 ± 0.0091,0.4004 ± 0.0018,0.367 ± 0.05,0.4928 ± 0.0041,0.421 ± 0.049
FFSCFFFSVLYR,0.2699 ± 0.00059,0.214 ± 0.018,0.302 ± 0.042,0.425 ± 0.031,0.469 ± 0.022,0.302 ± 0.029,0.384 ± 0.018,0.377 ± 0.035
FFVYRFFSLSVC,0.146 ± 0.0021,0.209 ± 0.0047,0.13 ± 0.032,0.247 ± 0.0028,0.0301 ± 0.0028,0.0256 ± 0.0079,0.0647 ± 0.011,0.07222 ± 0.00031
FGCCLYFCFWGL,0.455 ± 0.0063,0.519 ± 0.011,0.386 ± 0.026,0.524 ± 0.0085,0.3524 ± 0.0025,0.372 ± 0.018,0.491 ± 0.016,0.433 ± 0.005
FHLVIYWCVRGP,0.337 ± 0.013,0.453 ± 0.088,0.299 ± 0.035,0.45 ± 0.0086,0.2623 ± 0.0021,0.281 ± 0.053,0.474 ± 0.034,0.428 ± 0.034
FICYDRILTVYY,0.479 ± 0.0097,0.564 ± 0.045,0.394 ± 0.029,0.524 ± 0.026,0.369 ± 0.043,0.368 ± 0.024,0.489 ± 0.031,0.454 ± 0.034
